T1: recombinant hMCAM-His (human, UniProt P43121 24-559)
T1 chain: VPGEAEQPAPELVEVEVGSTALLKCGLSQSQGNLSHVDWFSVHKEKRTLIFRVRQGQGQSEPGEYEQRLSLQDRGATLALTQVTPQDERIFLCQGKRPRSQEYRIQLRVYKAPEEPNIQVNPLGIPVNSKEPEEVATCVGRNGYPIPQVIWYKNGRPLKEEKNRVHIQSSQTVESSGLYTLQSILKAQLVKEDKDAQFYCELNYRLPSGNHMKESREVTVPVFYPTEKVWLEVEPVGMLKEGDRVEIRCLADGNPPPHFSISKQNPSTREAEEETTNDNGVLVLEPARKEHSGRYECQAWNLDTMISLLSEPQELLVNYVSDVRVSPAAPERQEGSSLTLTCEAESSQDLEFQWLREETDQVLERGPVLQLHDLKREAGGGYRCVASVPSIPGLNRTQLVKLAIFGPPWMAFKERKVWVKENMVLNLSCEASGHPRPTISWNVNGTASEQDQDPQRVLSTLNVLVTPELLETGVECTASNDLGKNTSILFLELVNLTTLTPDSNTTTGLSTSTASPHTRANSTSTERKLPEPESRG

B1: human MCAM expressed on CHO cells (full length human MCAM gene) (receptor)
chain: VPGEAEQPAPELVEVEVGSTALLKCGLSQSQGNLSHVDWFSVHKEKRTLIFRVRQGQGQSEPGEYEQRLSLQDRGATLALTQVTPQDERIFLCQGKRPRSQEYRIQLRVYKAPEEPNIQVNPLGIPVNSKEPEEVATCVGRNGYPIPQVIWYKNGRPLKEEKNRVHIQSSQTVESSGLYTLQSILKAQLVKEDKDAQFYCELNYRLPSGNHMKESREVTVPVFYPTEKVWLEVEPVGMLKEGDRVEIRCLADGNPPPHFSISKQNPSTREAEEETTNDNGVLVLEPARKEHSGRYECQAWNLDTMISLLSEPQELLVNYVSDVRVSPAAPERQEGSSLTLTCEAESSQDLEFQWLREETDQVLERGPVLQLHDLKREAGGGYRCVASVPSIPGLNRTQLVKLAIFGPPWMAFKERKVWVKENMVLNLSCEASGHPRPTISWNVNGTASEQDQDPQRVLSTLNVLVTPELLETGVECTASNDLGKNTSILFLELVNLTTLTPDSNTTTGLSTSTASPHTRANSTSTERKLPEPESRGVVIVAVIVCILVLAVLGAVLYFLYKKGKLPCRRSGKQEITLPPSRKTELVVEVKSDKLPEEMGLLQGSSGDKRAPGDQGEKYIDLRH
notes: also called hMCAM expressing CHO cells; CD146

Assays:
[1] = biological target: T1, recombinant hMCAM-His; experiment: ForteBio Octet Red, antibody on anti-human Fc sensors, hMCAMHis analyte, 1:1 fit; affinity relative to rodent 2120, second Forte column
Experimental: (§1) The affinities were measured using the ForteBio Octet Red. Anti-human Fc sensors were used to capture the humanized antibodies, and several concentrations of hMCAMHis analyte were used to determine the affinity using a 1:1 fitting model.

[2] = biological target: T1, recombinant hMCAM-His; experiment: ForteBio Octet Red, antibody on anti-human Fc sensors, hMCAMHis analyte, 1:1 fit; affinity relative to rodent 2120, Expt. #1
Experimental: as §1

[3] = biological target: T1, recombinant hMCAM-His; experiment: ForteBio Octet Red, antibody on anti-human Fc sensors, hMCAMHis analyte, 1:1 fit; affinity relative to rodent 2120, Expt. #2
Experimental: as §1

[4] = biological target: T1, recombinant hMCAM-His; experiment: ForteBio Octet Red, antibody on anti-human Fc sensors, hMCAMHis analyte, 1:1 fit; affinity relative to rodent 2120, first Forte column
Experimental: as §1

[5] = biological target: T1, recombinant hMCAM-His; experiment: competitive ELISA on coated hMCAM-His, competitor biotinylated rodent or chimeric 2120; IC50 relative to rodent 2120, Expt. #1
Experimental: (§2) The apparent affinities of the humanized antibodies were compared to the parental rodent or chimeric antibody in a competitive ELISA according to the following protocol: ELISA plates were coated with recombinant hMCAM-His, and blocked with casein buffer to prevent non-specific binding. Biotinylated rodent or chimeric antibody was added at a subsaturating concentration, in the presence or absence of 3× increasing concentrations of unlabeled competitor (humanized antibody, rodent, or chimeric). After washing to remove unbound antibody, streptavidin HRP was added to allow detection of the biotinylated antibody. The ELISA was developed with TMB substrate and the OD450 was measured. The IC50 of the unlabeled competitor was determined using the GraphPad Prism5 software.

[6] = biological target: B1; experiment: laminin/FACS assay: blocking of recombinant laminin 411 binding to hMCAM expressing CHO cells, relative to rodent 2120, Expt#1
Experimental: (§3) Following incubation for 30-45 minutes, the cells were washed and anti-laminin conjugated to AF650 (NovusBio) was added to detect the bound laminin. The cells were run on a flow cytometer to measure the laminin binding signal.

[7] = biological target: T1, recombinant hMCAM-His; experiment: competitive ELISA on coated hMCAM-His, competitor biotinylated rodent or chimeric 2120; IC50 relative to rodent 2120
Experimental: as §2

[8] = biological target: B1; experiment: laminin/FACS assay: blocking of recombinant laminin 411 binding to hMCAM expressing CHO cells, relative to rodent 2120, Expt#2
Experimental: as §3

[9] = biological target: T1, recombinant hMCAM-His; experiment: competitive ELISA on coated hMCAM-His, competitor biotinylated rodent or chimeric 2120; IC50 relative to rodent 2120, Expt. #2
Experimental: as §2

[10] = biological target: T1, recombinant hMCAM-His; experiment: summary of ForteBio and competitive ELISA on hMCAM-His
Experimental: as §2, §1

[11] = biological target: B1; experiment: summary of laminin blocking assay on hMCAM expressing CHO cells
Experimental: as §3

[12] = biological target: T2, recombinant laminin 511 (UniProt O15230 36-3695; P07942 22-1786; P11047 34-1609); experiment: flow cytometry with a pan-laminin antibody on CHO cells transfected with human MCAM
T2 construct: also called laminin 10 (α5β1γ1)

[13] = biological target: laminin α-4 (UniProt Q16363 25-1823); experiment: FACS on MCAM mutants displayed on mammalian cells
Sequence of laminin α-4 (Q16363 25-1823): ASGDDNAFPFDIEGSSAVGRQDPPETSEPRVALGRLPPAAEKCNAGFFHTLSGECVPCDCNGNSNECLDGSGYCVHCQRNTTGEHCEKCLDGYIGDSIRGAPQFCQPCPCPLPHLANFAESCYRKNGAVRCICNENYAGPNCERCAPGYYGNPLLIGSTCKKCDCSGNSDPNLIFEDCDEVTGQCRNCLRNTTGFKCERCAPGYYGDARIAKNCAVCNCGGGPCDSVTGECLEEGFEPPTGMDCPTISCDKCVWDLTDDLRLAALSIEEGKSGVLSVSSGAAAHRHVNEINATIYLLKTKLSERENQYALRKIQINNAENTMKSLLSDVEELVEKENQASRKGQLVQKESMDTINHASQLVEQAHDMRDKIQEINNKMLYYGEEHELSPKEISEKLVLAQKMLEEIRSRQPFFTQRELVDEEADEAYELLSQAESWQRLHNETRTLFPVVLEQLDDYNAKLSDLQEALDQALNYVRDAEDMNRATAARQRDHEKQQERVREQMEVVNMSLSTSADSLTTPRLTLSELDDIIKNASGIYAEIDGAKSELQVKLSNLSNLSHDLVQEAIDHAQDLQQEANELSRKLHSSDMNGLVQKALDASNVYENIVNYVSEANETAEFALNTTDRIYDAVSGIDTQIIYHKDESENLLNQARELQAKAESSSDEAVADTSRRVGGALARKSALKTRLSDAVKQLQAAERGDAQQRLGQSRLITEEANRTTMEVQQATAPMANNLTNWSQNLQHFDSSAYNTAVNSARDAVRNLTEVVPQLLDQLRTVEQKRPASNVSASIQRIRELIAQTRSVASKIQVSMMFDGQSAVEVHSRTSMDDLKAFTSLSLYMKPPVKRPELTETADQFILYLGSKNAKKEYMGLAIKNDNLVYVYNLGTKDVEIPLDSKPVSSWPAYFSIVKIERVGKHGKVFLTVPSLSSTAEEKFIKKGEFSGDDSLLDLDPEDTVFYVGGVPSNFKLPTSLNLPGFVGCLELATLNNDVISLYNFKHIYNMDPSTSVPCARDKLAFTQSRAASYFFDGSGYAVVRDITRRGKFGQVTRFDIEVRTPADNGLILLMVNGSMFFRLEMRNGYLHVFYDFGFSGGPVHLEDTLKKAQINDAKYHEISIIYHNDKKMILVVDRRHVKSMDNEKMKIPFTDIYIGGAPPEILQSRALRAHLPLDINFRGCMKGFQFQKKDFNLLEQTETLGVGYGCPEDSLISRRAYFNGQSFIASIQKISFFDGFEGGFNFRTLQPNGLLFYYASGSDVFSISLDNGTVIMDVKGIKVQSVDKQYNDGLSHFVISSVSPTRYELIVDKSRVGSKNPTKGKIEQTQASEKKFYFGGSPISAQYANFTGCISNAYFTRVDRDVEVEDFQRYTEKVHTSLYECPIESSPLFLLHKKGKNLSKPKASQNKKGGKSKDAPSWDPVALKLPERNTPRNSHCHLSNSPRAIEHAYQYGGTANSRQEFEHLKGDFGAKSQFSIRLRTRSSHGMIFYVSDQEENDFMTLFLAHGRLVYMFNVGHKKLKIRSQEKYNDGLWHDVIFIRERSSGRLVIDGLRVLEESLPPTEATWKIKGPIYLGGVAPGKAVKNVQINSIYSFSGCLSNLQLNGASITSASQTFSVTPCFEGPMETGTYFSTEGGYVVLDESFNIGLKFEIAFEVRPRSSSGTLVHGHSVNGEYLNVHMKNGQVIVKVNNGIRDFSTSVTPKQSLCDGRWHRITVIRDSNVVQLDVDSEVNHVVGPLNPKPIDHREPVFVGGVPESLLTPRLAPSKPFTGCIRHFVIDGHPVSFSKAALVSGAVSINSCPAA

| Fold over rodent (Forte) [1] | Fold over rodent (Forte) [2] | Fold over rodent (Forte) [3] | Fold over rodent (Forte) [4] | Fold over rodent (ELISA) [5] | Fold over rodent (Blocking) [6] | Fold over rodent (ELISA) [7] | Fold over rodent (Blocking) [8] | Fold over rodent (ELISA) [9] | further results | Binder |
| --- | --- | --- | --- | --- | --- | --- | --- | --- | --- | --- |
| 5.8 fold | 5.64 fold | 6.21 fold | 5.9 fold | 2.23 fold | 1.7 fold | 1.8 fold | 2.8 fold | 2.42 fold | – | humanized anti-MCAM antibody h2120_VH1 + h2120_VL3 (antibody, V domains shown, V regions cloned into vectors containing human CK (VL) or human IgG1 (VH); also called h2120VH1VL3; Standard VH + conservative VL) VH: QVTLKESGPVLVKPTETLTLTCTVSGFSLTSNGVSWVRQPPGKALEWIAAISSGGTTYYNSAFKSRLTISRDTSKSQVVLTMTNMDPVDTATYYCARRYGYGWYFDFWGQGTLVTVSS VL: DIQMTQSPSSLSASVGDRVTINCKASQNIYNSLAWYQQKPGKAPKVLIFNANSLQTGIPSRFSGSGSGTDFTLTISSLQPEDFATYYCQQFYSGYTFGQGTKLEIK |
| – | 6.57 fold | 6.43 fold | – | 1.93 fold | – | – | – | 2.62 fold | – | humanized anti-MCAM antibody h2120_VH2 + h2120_VL3 (antibody, V domains shown, Human IgG1 / human kappa; also called h2120VH2VL3; Conservative VH + conservative VL) VH: QVTLKESGPVLVKPTETLTLTCTVSGFSLTSNGVSWVRQPPGKALEWIAAISSGGTTYYNSAFKSRLSISRDTSKSQVVLTMTNMDPVDTATYYCARRYGYGWYFDFWGQGTLVTVSS VL: DIQMTQSPSSLSASVGDRVTINCKASQNIYNSLAWYQQKPGKAPKVLIFNANSLQTGIPSRFSGSGSGTDFTLTISSLQPEDFATYYCQQFYSGYTFGQGTKLEIK |
| 1.2 fold | – | – | 1.1 fold | – | 1.2 fold | 2.4 fold | 1.5 fold | – | reduction in affinity (fold, against rodent 2120) [10]: < 2 fold; reduction in potency (fold, against rodent 2120) [11]: < 2 fold | humanized anti-MCAM antibody h2120_VH5 + h2120_VL3 (antibody, V domains shown, Human IgG1 / human kappa; also called h2120VH5VL3; VH5VL3) VH: QVTLKESGPVLVKPTETLTLTCTVSGFSLTSNAVSWVRQPPGKALEWIAAISSGGTTYYNSAFKSRLTISRDTSKSQVVLTMTNMDPVDTATYYCARRYGYGWYFDFWGQGTLVTVSS VL: DIQMTQSPSSLSASVGDRVTINCKASQNIYNSLAWYQQKPGKAPKVLIFNANSLQTGIPSRFSGSGSGTDFTLTISSLQPEDFATYYCQQFYSGYTFGQGTKLEIK |
| – | – | – | – | – | – | – | – | – | binding result [12]: no binding (tested: 10 µg/ml) | B1 |
| – | – | – | – | – | – | – | – | – | binding result [13]: no binding | human MCAM Y318A mutant displayed on mammalian cells (Example 5) (receptor, construct and any tag not described) VPGEAEQPAPELVEVEVGSTALLKCGLSQSQGNLSHVDWFSVHKEKRTLIFRVRQGQGQSEPGEYEQRLSLQDRGATLALTQVTPQDERIFLCQGKRPRSQEYRIQLRVYKAPEEPNIQVNPLGIPVNSKEPEEVATCVGRNGYPIPQVIWYKNGRPLKEEKNRVHIQSSQTVESSGLYTLQSILKAQLVKEDKDAQFYCELNYRLPSGNHMKESREVTVPVFYPTEKVWLEVEPVGMLKEGDRVEIRCLADGNPPPHFSISKQNPSTREAEEETTNDNGVLVLEPARKEHSGRAECQAWNLDTMISLLSEPQELLVNYVSDVRVSPAAPERQEGSSLTLTCEAESSQDLEFQWLREETDQVLERGPVLQLHDLKREAGGGYRCVASVPSIPGLNRTQLVKLAIFGPPWMAFKERKVWVKENMVLNLSCEASGHPRPTISWNVNGTASEQDQDPQRVLSTLNVLVTPELLETGVECTASNDLGKNTSILFLELVNLTTLTPDSNTTTGLSTSTASPHTRANSTSTERKLPEPESRGVVIVAVIVCILVLAVLGAVLYFLYKKGKLPCRRSGKQEITLPPSRKTELVVEVKSDKLPEEMGLLQGSSGDKRAPGDQGEKYIDLRH |
